Source: US20190194280A1

Tests used:
[1] = target: Serum samples collected at week 16 from patients immunized with UBI AD vaccine (UB-311); assay: comp. ELISA, serum P207
[2] = target: Serum samples collected at week 16 from patients immunized with UBI AD vaccine (UB-311); assay: comp. ELISA, serum P104
[3] = target: Serum samples collected at week 16 from patients immunized with UBI AD vaccine (UB-311); assay: comp. ELISA, serum P205
[4] = target: Serum samples collected at week 16 from patients immunized with UBI AD vaccine (UB-311); assay: comp. ELISA, serum P203
[5] = target: Serum samples collected at week 16 from patients immunized with UBI AD vaccine (UB-311); assay: comp. ELISA, serum P109
[6] = target: Serum samples collected at week 16 from patients immunized with UBI AD vaccine (UB-311); assay: comp. ELISA, serum P206
[7] = target: Serum samples collected at week 16 from patients immunized with UBI AD vaccine (UB-311); assay: comp. ELISA, serum P105
[8] = target: Serum samples collected at week 16 from patients immunized with UBI AD vaccine (UB-311); assay: comp. ELISA, serum P208
[9] = target: Serum samples collected at week 16 from patients immunized with UBI AD vaccine (UB-311); assay: comp. ELISA, serum P204
[10] = target: Serum samples collected at week 16 from patients immunized with UBI AD vaccine (UB-311); assay: comp. ELISA, serum P201
[11] = target: Serum samples collected at week 16 from patients immunized with UBI AD vaccine (UB-311); assay: comp. ELISA, serum P107
[12] = target: Serum samples collected at week 16 from patients immunized with UBI AD vaccine (UB-311); assay: comp. ELISA, serum P108
[13] = target: Serum samples collected at week 16 from patients immunized with UBI AD vaccine (UB-311); assay: comp. ELISA, serum P202
[14] = target: Serum samples collected at week 16 from patients immunized with UBI AD vaccine (UB-311); assay: comp. ELISA, serum P106
[15] = target: Serum samples collected at week 16 from patients immunized with UBI AD vaccine (UB-311); assay: comp. ELISA, serum P209
[16] = target: Serum samples collected at week 16 from patients immunized with UBI AD vaccine (UB-311); assay: comp. ELISA, serum P102
[17] = target: Serum samples collected at week 16 from patients immunized with UBI AD vaccine (UB-311); assay: comp. ELISA, serum P101
[18] = target: Serum samples collected at week 16 from patients immunized with UBI AD vaccine (UB-311); assay: comp. ELISA, serum P210
[19] = target: Serum samples collected at week 16 from patients immunized with UBI AD vaccine (UB-311); assay: comp. ELISA, serum P103
[20] = target: Immune sera of baboons immunized with UBI AD vaccine; assay: competitive inhibition ELISA

For ISEVKMDAEF [Aβ-6-4 or APP 770 (I666-F675)], the IC50-based peak height [1] was 0, the IC50-based peak height [2] was 0 and the IC50-based peak height [3] was 0. It also gave an IC50-based peak height [4] of 0, an IC50-based peak height [5] of 0 and an IC50-based peak height [6] of 0. It also gave an IC50-based peak height [7] of 0, an IC50-based peak height [8] of 0 and an IC50-based peak height [9] of 0. For the same binder, the IC50-based peak height [10] was 0, the IC50-based peak height [11] was 0 and the IC50-based peak height [12] was 0. The IC50-based peak height [13] was 0, the IC50-based peak height [14] was 0 and the IC50-based peak height [15] was 0. For the same binder, the IC50-based peak height [16] was 0, the IC50-based peak height [17] was 0 and the IC50-based peak height [18] was 0. The IC50-based peak height [19] was 0.

With EEISEVKMDA [Aβ-8-2 or APP 770 (E664-A673)] the IC50-based peak height [1] was 0, the IC50-based peak height [2] was 0 and the IC50-based peak height [3] was 0. It also gave an IC50-based peak height [4] of 0, an IC50-based peak height [5] of 0 and an IC50-based peak height [6] of 0. For the same binder, the IC50-based peak height [7] was 0, the IC50-based peak height [8] was 0 and the IC50-based peak height [9] was 0. For the same binder, the IC50-based peak height [10] was 0, the IC50-based peak height [11] was 0 and the IC50-based peak height [12] was 0. The IC50-based peak height [13] was 0, the IC50-based peak height [14] was 0 and the IC50-based peak height [15] was 0. For the same binder, the IC50-based peak height [16] was 0, the IC50-based peak height [17] was 0 and the IC50-based peak height [18] was 0. It also gave an IC50-based peak height [19] of 0.

With EISEVKMDAE [Aβ-7-3 or APP 770 (E665-E674)] the IC50-based peak height [1] was 0, the IC50-based peak height [2] was 0 and the IC50-based peak height [3] was 0. The IC50-based peak height [4] was 0, the IC50-based peak height [5] was 0 and the IC50-based peak height [6] was 0. The IC50-based peak height [7] was 0, the IC50-based peak height [8] was 0 and the IC50-based peak height [9] was 0. It also gave an IC50-based peak height [10] of 0, an IC50-based peak height [11] of 0 and an IC50-based peak height [12] of 0. The IC50-based peak height [13] was 0, the IC50-based peak height [14] was 0 and the IC50-based peak height [15] was 0. It also gave an IC50-based peak height [16] of 0, an IC50-based peak height [17] of 0 and an IC50-based peak height [18] of 0. For the same binder, the IC50-based peak height [19] was 0.

Work on TEEISEVKMD [Aβ-9-1 or APP 770 (T663-D672)] yielded an IC50-based peak height [1] of 0, an IC50-based peak height [2] of 0 and an IC50-based peak height [3] of 0. The IC50-based peak height [4] was 0, the IC50-based peak height [5] was 0 and the IC50-based peak height [6] was 0. The IC50-based peak height [7] was 0, the IC50-based peak height [8] was 0 and the IC50-based peak height [9] was 0. For the same binder, the IC50-based peak height [10] was 0, the IC50-based peak height [11] was 0 and the IC50-based peak height [12] was 0. The IC50-based peak height [13] was 0, the IC50-based peak height [14] was 0 and the IC50-based peak height [15] was 0. It also gave an IC50-based peak height [16] of 0, an IC50-based peak height [17] of 0 and an IC50-based peak height [18] of 0. The IC50-based peak height [19] was 0.

Binder LVFFAEDVGSNKGAIIGLMVGGVVIA [Aβ17-42 (Aβ or APP 770 (L688-A713))] has a % inhibition at 0 µg/mL [20] of 0%, a % inhibition at 0.25 µg/mL [20] of 5% and a % inhibition at 0.5 µg/mL [20] of 9%. It also gave a % inhibition at 1 µg/mL [20] of 10%, a % inhibition at 2 µg/mL [20] of 5% and a % inhibition at 8 µg/mL [20] of 0%. It also gave a % inhibition at 32 µg/mL [20] of 7%.

With SEVKMDAEFR [Aβ-5-5 or APP 770 (S667-R676)] the IC50-based peak height [1] was 0, the IC50-based peak height [2] was 0 and the IC50-based peak height [3] was 0. For the same binder, the IC50-based peak height [4] was 0, the IC50-based peak height [5] was 0 and the IC50-based peak height [6] was 0. It also gave an IC50-based peak height [7] of 0, an IC50-based peak height [8] of 0 and an IC50-based peak height [9] of 0. It also gave an IC50-based peak height [10] of 0, an IC50-based peak height [11] of 0 and an IC50-based peak height [12] of 0. The IC50-based peak height [13] was 0, the IC50-based peak height [14] was 0 and the IC50-based peak height [15] was 0. For the same binder, the IC50-based peak height [16] was 0, the IC50-based peak height [17] was 10 and the IC50-based peak height [18] was 0. The IC50-based peak height [19] was 0.
